Measured values reported in patent US20260008815A1, “CYCLIC PEPTIDE OR SALT THEREOF, AND USES THEREOF” (FUJIFILM Corporation, priority 2023, published 2026).
Numbered stars: 1 amine (or outer) side, 2 acyl side, 3 side chain; on linkers, the order of the positions; unused ones are H or OH. Bridge positions count the residues as written; N and C are the ends. Square brackets hold non-standard residues; d marks the D form. Ends that are not written are not given here. acetyl = acetyl (haloacetyl before ring closure) on the side-chain amine, O=C(C[*:1])[*:2]; COCH2 = acetyl group that carries the bridge; hCys = N[C@@H](CCS)C(=O)O

Tests used:
[1] = biological target: T1, Recombinant Human FGFR2 alpha (IIIc) Fc Chimera Protein (Homo sapiens, UniProt P21802); assay: SPR binding affinity of chemically synthesized cyclic peptide to immobilized FGFR; conditions: SPR binding amount at 10 nmol/L cyclic peptide, 25° C., per one molecule of FGFR; chemically synthesized product
T1 construct: Fc (chimera); purchased R&D systems 712-FR-050
T1 sequence (P21802 with tags, fused parts or gaps limits assumed): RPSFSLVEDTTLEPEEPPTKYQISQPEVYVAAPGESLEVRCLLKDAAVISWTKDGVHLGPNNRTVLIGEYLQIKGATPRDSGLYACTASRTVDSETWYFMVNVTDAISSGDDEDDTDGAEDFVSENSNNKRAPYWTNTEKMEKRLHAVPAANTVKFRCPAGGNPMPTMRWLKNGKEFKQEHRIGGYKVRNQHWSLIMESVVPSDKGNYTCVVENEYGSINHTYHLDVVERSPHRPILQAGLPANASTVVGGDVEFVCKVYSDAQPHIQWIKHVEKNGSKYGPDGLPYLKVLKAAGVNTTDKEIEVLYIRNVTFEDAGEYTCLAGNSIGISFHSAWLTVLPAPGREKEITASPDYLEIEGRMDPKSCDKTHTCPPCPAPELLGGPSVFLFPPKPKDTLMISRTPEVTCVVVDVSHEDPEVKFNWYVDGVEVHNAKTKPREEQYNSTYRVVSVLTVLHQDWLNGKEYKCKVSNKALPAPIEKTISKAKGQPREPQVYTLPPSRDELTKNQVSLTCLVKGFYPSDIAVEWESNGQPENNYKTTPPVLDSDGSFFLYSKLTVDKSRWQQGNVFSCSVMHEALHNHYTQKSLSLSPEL
Experimental: The binding affinity of the cyclic peptide to FGFR was evaluated using a surface plasmon resonance (SPR) method.
A CM5 sensor chip (Cytiva, 29149603) was set in Biacore-T200 (manufactured by Cytiva) which is a surface plasmon resonance device, and an HBS-EP buffer (Cytiva, BR100826) was added as a running buffer at a flow rate of 10 μL/min to equilibrate the flow channel. Next, 70 μL of a mixed aqueous solution of 0.2 mol/L 1-(3-dimethylaminopropyl)-3-ethylcarbodiimide (EDC) and 0.05 mol/L N-hydroxysuccinimide (NHS) was added to activate the sensor chip. Then, Recombinant Human FGFR2 alpha (IIIc) Fc Chimera Protein CF (R&D systems, 712-FR-050) prepared at 50 nmol/L in an Acetate 4.5 buffer (Cytiva, BR100350) was added thereto to perform immobilization at about 5000 RU. Thereafter, the blocking treatment was performed with an ethanolamine solution. In addition, in another flow channel of the same sensor chip, blocking treatment was performed immediately after activation without immobilizing FGFR.
A cyclic peptide diluted to 10 nmol/L using HBS-EP was added to each flow channel of the FGFR-immobilized sensor chip produced above at 25° C. for 10 minutes, then HBS-EP was allowed to flow as a running buffer for 30 minutes, and the binding of the cyclic peptide to FGFR was measured. Thereafter, a regeneration treatment of removing the bound cyclic peptide was performed by repeating the flow of a regeneration liquid in which sodium chloride powder was dissolved in Glysine 1.5 (Cytiva, BR100354) to a final concentration of 0.15 mol/L for 1 minute in each flow channel twice. The binding amount of the cyclic peptide was evaluated from the difference between the measured value of Biacore-T200 in the flow channel in which FGFR was immobilized and the measured value of Biacore-T200 in the flow channel in which FGFR was not immobilated, in a case where a 10 nmol/L cyclic peptide was allowed to flow.
The binding amount of the cyclic peptide evaluated above was normalized to the binding amount of the cyclic peptide molecules per one molecule of FGFR using the molecular weights of the cyclic peptide and FGFR, and the binding affinity to FGFR was evaluated according to the following evaluation criteria. The evaluation result preferably satisfies the evaluation criteria A, B, or C.

[2] = Molecular stability after reducing agent (DTT) treatment, LC; format: physicochemical; conditions: residual rate after DTT aqueous solution, room temperature, 1 hour
Experimental: The molecular stability of the cyclic peptide was evaluated by analyzing an aqueous solution of the cyclic peptide treated with a reducing agent by liquid chromatography (LC).
The reducing agent treatment was performed under the following conditions based on the concentration of glutathione contained in the cells. 25 μL of a 0.2 mg/mL cyclic peptide aqueous solution was prepared, 58.8 μL of a 12.6 mmol/L DTT aqueous solution was added to the aqueous solution, and the mixture was incubated at room temperature for 1 hour to obtain an aqueous solution of the cyclic peptide treated with a reducing agent. The DTT aqueous solution was used by diluting a 1 mol/L (+−)-dithiothreitol (DTT) solution (FUJIFILM Wako Pure Chemical Corporation, 044-33871) with water. The total area of all the peaks in LC/MS of the cyclic peptide before the reducing agent treatment was set to 100%, and the proportion of the total area of all the peaks in LC/MS of the aqueous solution of the cyclic peptide treated with the reducing agent was determined to calculate the residual rate of the cyclic peptide, and the molecular stability was evaluated according to the following evaluation criteria. The evaluation result preferably satisfies the evaluation criteria A, B, or C.
The LC used for the evaluation of molecular stability was set to the following conditions. • LC device: Prominence series (pump, column oven, autosampler, detector) (manufactured by Shimadzu Corporation) • Detector: photodiode array detector (SPD-M20A), measurement wavelength of 280 nm • Column: TSKgel ODS-100V, inner diameter of 4.6 mm×length of 150 mm, particle diameter of 5 μm (manufactured by Tosoh Corporation) • Eluent A: solution containing 0.1% trifluoroacetic acid as solute, and solvent is 100% water • Eluent B: solution containing 0.1% trifluoroacetic acid as solute, and solvent is 100% acetonitrile • Flow rate: 1.0 mL/min • Injection amount: 25 μL • Gradient: 20% to 50%: Eluent B (0 to 15 minutes), 100%: Eluent B (15 minutes) • Column temperature: 40° C.

Substance | Evaluation result of binding affinity to FGFR [1] | Evaluation result of reductive stability [2]
433 (Q[hCys]PQNFINPVQWRYFQHYK(COCH2)NKKK; thioether 2-19 via acetyl) [compound 433] | A (The binding amount is 0.7 molecules of the cyclic peptide/one molecule of FGFR or more.) | A (The residual rate of cyclic peptide is 90% or more.)
434 (QXPQNFINPVQWRYFQHYXNKKK; not fully specified; Description of Artificial Sequence: Cyclic peptide) [compound 434] | A (The binding amount is 0.7 molecules of the cyclic peptide/one molecule of FGFR or more.) | A (The residual rate of cyclic peptide is 90% or more.)
435 (QXPQNFINPVQWRYFQHYXNKKK; not fully specified; Description of Artificial Sequence: Cyclic peptide) [compound 435] | A (The binding amount is 0.7 molecules of the cyclic peptide/one molecule of FGFR or more.) | A (The residual rate of cyclic peptide is 90% or more.)
437 (QK(COCH2)PQNFINPVQWRYFQHY[hCys]NKKK; thioether 2-19 via acetyl) [compound 437] | A (The binding amount is 0.7 molecules of the cyclic peptide/one molecule of FGFR or more.) | A (The residual rate of cyclic peptide is 90% or more.)
438 (QK(COCH2)PQNFINPVQWRYFQHY[hCys]NKKK; thioether 2-19 via acetyl) [compound 438] | A (The binding amount is 0.7 molecules of the cyclic peptide/one molecule of FGFR or more.) | A (The residual rate of cyclic peptide is 90% or more.)
439 (QXPQNFINPVQWRYFQHYXNKKK; not fully specified; Description of Artificial Sequence: Cyclic peptide) [compound 439] | A (The binding amount is 0.7 molecules of the cyclic peptide/one molecule of FGFR or more.) | A (The residual rate of cyclic peptide is 90% or more.)
440 (QXPQNFINPVQWRYFQHYXNKKK; not fully specified; Description of Artificial Sequence: Cyclic peptide) [compound 440] | A (The binding amount is 0.7 molecules of the cyclic peptide/one molecule of FGFR or more.) | A (The residual rate of cyclic peptide is 90% or more.)
441 (QXPQNFINPVQWRYFQHYXNKKK; not fully specified; Description of Artificial Sequence: Cyclic peptide) [compound 441] | A (The binding amount is 0.7 molecules of the cyclic peptide/one molecule of FGFR or more.) | A (The residual rate of cyclic peptide is 90% or more.)
442 (YXEENYLDPEQYQYFIYFKYKKK; not fully specified; Description of Artificial Sequence: Cyclic peptide) [compound 442] | A (The binding amount is 0.7 molecules of the cyclic peptide/one molecule of FGFR or more.) | A (The residual rate of cyclic peptide is 90% or more.)
443 (YXEENYLDPEQYQYFIYFXYKKK; not fully specified; Description of Artificial Sequence: Cyclic peptide) [compound 443] | A (The binding amount is 0.7 molecules of the cyclic peptide/one molecule of FGFR or more.) | A (The residual rate of cyclic peptide is 90% or more.)
444 (YXEENYLDPEQYQYFIYFXYKKK; not fully specified; Description of Artificial Sequence: Cyclic peptide) [compound 444] | B (The binding amount is 0.5 molecules of the cyclic peptide/one molecule of FGFR or more and less than 0.7 molecules of cyclic peptide/one molecule of FGFR.) | A (The residual rate of cyclic peptide is 90% or more.)
446 (YKEENYLDPEQYQYFIYFXYKKK; Description of Artificial Sequence: Cyclic peptide) [compound 446] | A (The binding amount is 0.7 molecules of the cyclic peptide/one molecule of FGFR or more.) | A (The residual rate of cyclic peptide is 90% or more.)
447 (YXEENYLDPEQYQYFIYFXYKKK; not fully specified; Description of Artificial Sequence: Cyclic peptide) [compound 447] | A (The binding amount is 0.7 molecules of the cyclic peptide/one molecule of FGFR or more.) | A (The residual rate of cyclic peptide is 90% or more.)
448 (YXEENYLDPEQYQYFIYFXYKKK; not fully specified; Description of Artificial Sequence: Cyclic peptide) [compound 448] | A (The binding amount is 0.7 molecules of the cyclic peptide/one molecule of FGFR or more.) | A (The residual rate of cyclic peptide is 90% or more.)
449 (YXEENYLDPEQYQYFIYFXYKKK; not fully specified; Description of Artificial Sequence: Cyclic peptide) [compound 449] | A (The binding amount is 0.7 molecules of the cyclic peptide/one molecule of FGFR or more.) | A (The residual rate of cyclic peptide is 90% or more.)
451 (YCEENYLDPEQYQYFIYFCYKKK; disulfide 2-19) [compound 451] | D (The binding amount is less than 0.1 molecules of the cyclic peptide/one molecule of FGFR.) | D (The residual rate of the cyclic peptide is less than 50%)
452 (YXHENYLDPEQYQYFHYFKYKKK; Description of Artificial Sequence: Cyclic peptide) [compound 452] | A (The binding amount is 0.7 molecules of the cyclic peptide/one molecule of FGFR or more.) | A (The residual rate of cyclic peptide is 90% or more.)
453 (YXHENYLDPEQYQYFHYFKKKK; Description of Artificial Sequence: Cyclic peptide) [compound 453] | C (The binding amount is 0.1 molecules of cyclic peptide/one molecule of FGFR or more and less than 0.5 molecules of cyclic peptide/one molecule of FGFR.) | A (The residual rate of cyclic peptide is 90% or more.)
